Test results from article PMC13270999, “Chronology of tRNA structural dynamics prior to and during interaction with a pseudouridine synthase”.
One block for each molecule: values may come before it.

What was measured:
[1] = target: GST-tagged full-length S. cerevisiae Pus4 (S. cerevisiae) (UniProt P48567); test: sucrose gradient ultracentrifugation; 10 uM purified GST-Pus4 with and without 10 uM total yeast tRNA, 30 min at room temperature; 10-30% sucrose step gradient in Buffer B (50 mM Tris-HCl pH 7.5, 100 mM KCl), SW 55 Ti, 4 h at 55,000 rpm; fractions read by SDS-PAGE; standards beta-amylase and carbonic anhydrase; apparent molecular …
GST-Pus4 [2] = target: T1, GST-Pus4 (Saccharomyces cerevisiae, UniProt P48567 1-403); test: smFRET / PIFE; 200 nM Pus4; BLI: 50 mM Tris-HCl pH 7.5, 100 mM KCl, 0.02% Tween-20, 30 °C; EMSA: 50 mM Tris-HCl pH 7.5, 100 mM KCl, 30 min room temperature, 8% native PAGE in TBE at 4 °C; details: protein: recombinant; tags: N-terminal GST, Factor Xa site (pGEX-5X-3); tag not removed; label: 5' biotin; Cy3 at U4 C5; Cy5 at U41 C5; tRNA cloverleaf
GST-Pus4 [3] = target: T1, GST-Pus4; test: EMSA; 30 nM RNA; all bound at >=200 nM Pus4, 30 min; labelled form assumed; BLI: 50 mM Tris-HCl pH 7.5, 100 mM KCl, 0.02% Tween-20, 30 °C; EMSA: 50 mM Tris-HCl pH 7.5, 100 mM KCl, 30 min room temperature, 8% native PAGE in TBE at 4 °C; details: protein: recombinant; tags: N-terminal GST, Factor Xa site (pGEX-5X-3); tag not removed; label: 5' biotin; Cy3 at U4 C5; Cy5 at U41 C5; tRNA cloverleaf

T1 sequence (P48567 whole entry): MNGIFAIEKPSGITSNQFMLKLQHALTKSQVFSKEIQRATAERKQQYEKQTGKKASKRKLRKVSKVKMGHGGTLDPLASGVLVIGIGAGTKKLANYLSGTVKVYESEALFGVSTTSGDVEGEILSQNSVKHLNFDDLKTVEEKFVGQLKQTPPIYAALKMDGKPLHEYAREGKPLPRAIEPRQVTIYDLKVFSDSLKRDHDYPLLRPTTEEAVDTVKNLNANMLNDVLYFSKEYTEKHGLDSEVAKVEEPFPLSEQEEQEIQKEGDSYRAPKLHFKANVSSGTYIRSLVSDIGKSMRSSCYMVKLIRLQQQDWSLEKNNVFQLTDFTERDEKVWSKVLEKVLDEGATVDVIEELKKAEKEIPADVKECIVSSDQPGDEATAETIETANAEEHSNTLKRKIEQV

stoichiometry N [1]: 2
Molecule: GST-tagged full-length S. cerevisiae Pus4 (from UniProt P48567 1-403) (enzyme)

B1: Ψ55 tRNA eMet(CAU), Cy3/Cy5 (structured_RNA)
RNA: GCUUCAGUAGCUCAGUAGGAAGAGCGUCAGUCUCAUAAUCUGAAGGUCGAGAGUUCGAACCUCCCCUGGAGCACCA
modifications: pseudouridine at position 55 (second U of GAGAGUUCGAA)
binding result (GST-Pus4 [2]): binds

B2: U55 tRNA eMet(CAU), Cy3/Cy5 (structured_RNA)
RNA: B1 RNA
binding result (GST-Pus4 [3]): binds
